Data published in PMC12241602.

What follows are substances tested against His6-MadB (class I lantibiotic dehydratase MadB) (Clostridium sp. Maddingley) (assay: ITC; 200 uM leader variant in the syringe titrated into 20 uM MadB dimer in the cell, 20 injections of 2 uL, 25 °C, 50 mM HEPES, 500 mM NaCl, pH 7.5).

| Substance | Kd [nM] | stoichiometry N (LP per MadB dimer) |
| --- | --- | --- |
| MadL1 (isolated leader peptide of maddinglicin A) | 410 | 1 |
| MadL2 (leader peptide of MadA with the first five residues of the core peptide) | 320 | 1 |
| MadL3 (leader peptide of MadA with the first ten residues of the core peptide) | 150 | 1 |

What follows are substances tested against MadB, class I lantibiotic dehydratase of maddinglicin (His6-MadB) (Clostridium sp. Maddingley) (assay: ITC; leader variant (200 µM, syringe, 20 injections of 2 µL) titrated into MadB (20 µM of the dimer, cell); 25 °C; 50 mM HEPES, 500 mM NaCl, pH 7.5; N counts leader peptide per MadB dimer; at least triplicate, error S.D.).

| Substance | stoichiometry N |
| --- | --- |
| MadL1, isolated leader peptide of maddinglicin A (MadA), residues -23 to -1 | 1.21 |
| MadL2, leader peptide of maddinglicin A with the first five residues of the core peptide, residues -23 to +5 | 0.89 |
| MadL2_VSVS, MadL2 with the lysines K-12 and K-10 of the VKVK motif changed to serine (peptide) | 1.12 |
| MadL3, leader peptide of maddinglicin A with the first ten residues of the core peptide, residues -23 to +10 | 0.97 |
